The target in assay [1] is Clostridium difficile toxin A (TcdA) (Clostridium difficile) (UniProt P16154). The experiment in a line: cell-based or functional assay.
Assay [2] has the same target. The experiment in a line: ELISA, plate coated with 1 ug/ml TcdA.

Clostridium difficile toxin A (TcdA) (Clostridium difficile), sequence (P16154 whole entry): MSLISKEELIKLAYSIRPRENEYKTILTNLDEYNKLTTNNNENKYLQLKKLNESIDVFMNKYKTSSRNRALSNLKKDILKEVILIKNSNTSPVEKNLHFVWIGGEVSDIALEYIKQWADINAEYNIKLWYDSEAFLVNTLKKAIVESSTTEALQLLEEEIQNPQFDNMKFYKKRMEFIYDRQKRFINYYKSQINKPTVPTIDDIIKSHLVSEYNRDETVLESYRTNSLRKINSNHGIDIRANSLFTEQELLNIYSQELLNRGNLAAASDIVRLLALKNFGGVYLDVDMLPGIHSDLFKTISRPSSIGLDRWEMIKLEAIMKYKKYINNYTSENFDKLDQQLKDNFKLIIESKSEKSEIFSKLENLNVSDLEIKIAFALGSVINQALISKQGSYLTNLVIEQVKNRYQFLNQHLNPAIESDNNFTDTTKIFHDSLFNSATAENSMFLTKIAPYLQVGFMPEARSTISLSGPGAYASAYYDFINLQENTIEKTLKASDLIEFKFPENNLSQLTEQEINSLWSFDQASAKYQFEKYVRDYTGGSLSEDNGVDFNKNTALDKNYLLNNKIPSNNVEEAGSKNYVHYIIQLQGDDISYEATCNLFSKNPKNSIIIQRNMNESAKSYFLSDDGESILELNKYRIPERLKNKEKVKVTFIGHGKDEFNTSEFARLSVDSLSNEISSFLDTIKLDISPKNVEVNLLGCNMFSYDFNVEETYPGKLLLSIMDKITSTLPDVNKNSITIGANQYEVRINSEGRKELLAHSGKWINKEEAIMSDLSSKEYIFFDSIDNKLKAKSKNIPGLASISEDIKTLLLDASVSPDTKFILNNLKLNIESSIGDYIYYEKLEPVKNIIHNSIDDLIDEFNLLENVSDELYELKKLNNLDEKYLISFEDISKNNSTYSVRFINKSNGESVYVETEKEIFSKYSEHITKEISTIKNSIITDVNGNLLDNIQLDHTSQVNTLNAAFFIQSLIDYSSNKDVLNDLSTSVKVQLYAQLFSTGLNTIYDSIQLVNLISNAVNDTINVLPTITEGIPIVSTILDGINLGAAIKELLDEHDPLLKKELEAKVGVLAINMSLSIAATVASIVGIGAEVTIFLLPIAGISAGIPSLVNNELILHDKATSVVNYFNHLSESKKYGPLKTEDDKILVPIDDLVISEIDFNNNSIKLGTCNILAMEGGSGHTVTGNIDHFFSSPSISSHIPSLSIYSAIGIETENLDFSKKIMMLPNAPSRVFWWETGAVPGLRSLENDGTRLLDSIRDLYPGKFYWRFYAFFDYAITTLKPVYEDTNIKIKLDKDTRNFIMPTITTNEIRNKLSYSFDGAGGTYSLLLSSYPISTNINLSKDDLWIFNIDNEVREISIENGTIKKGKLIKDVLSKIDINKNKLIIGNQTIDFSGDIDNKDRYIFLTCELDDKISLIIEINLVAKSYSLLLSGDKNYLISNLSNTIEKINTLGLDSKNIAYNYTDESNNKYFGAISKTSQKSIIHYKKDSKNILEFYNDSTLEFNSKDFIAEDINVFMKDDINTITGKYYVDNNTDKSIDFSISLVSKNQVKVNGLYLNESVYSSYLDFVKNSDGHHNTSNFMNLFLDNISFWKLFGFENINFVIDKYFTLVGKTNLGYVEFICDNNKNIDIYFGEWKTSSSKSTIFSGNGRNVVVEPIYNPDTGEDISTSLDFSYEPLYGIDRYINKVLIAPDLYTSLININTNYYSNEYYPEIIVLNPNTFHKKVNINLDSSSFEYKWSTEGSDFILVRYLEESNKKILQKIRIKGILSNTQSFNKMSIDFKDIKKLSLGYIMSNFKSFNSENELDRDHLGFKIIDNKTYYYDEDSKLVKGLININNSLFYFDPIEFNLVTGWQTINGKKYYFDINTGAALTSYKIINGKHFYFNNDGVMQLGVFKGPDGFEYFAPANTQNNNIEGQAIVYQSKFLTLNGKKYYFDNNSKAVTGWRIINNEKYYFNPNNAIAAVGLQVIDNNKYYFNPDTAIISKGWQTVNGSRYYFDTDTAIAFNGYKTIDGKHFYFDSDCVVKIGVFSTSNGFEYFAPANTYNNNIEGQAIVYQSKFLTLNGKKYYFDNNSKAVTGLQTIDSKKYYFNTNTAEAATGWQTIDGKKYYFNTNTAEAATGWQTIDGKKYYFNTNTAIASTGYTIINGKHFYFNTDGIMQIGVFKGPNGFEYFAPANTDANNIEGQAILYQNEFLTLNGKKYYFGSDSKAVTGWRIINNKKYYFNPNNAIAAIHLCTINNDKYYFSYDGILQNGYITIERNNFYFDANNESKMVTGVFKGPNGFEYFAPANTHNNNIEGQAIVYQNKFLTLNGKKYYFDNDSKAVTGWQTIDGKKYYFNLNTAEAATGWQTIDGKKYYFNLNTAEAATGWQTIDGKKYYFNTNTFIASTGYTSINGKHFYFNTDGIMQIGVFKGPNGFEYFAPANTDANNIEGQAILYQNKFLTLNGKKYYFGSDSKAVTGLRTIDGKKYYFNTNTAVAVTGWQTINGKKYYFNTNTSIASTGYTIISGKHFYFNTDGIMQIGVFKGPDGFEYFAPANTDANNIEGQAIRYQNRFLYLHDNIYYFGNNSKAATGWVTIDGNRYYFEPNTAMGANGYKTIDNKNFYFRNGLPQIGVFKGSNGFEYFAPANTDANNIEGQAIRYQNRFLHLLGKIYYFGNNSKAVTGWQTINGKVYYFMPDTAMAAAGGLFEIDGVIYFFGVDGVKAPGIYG

The substance “Merck anti-TcdA human monoclonal antibody” had a minimal dose of antibody protecting Vero cells from TcdA-induced cell rounding in assay [1] of more than 10 nM. In addition, the concentration giving a half-maximal response (EC50 (read off the curve)) in assay [2] came to 2 ng/mL.

For the origin of these results see US20180244760A1.
